Results published in the supplement of paper PMC7125110.
± gives the standard error. Fewer inactive variants are shown than the library holds.

B1: glmS ribozyme (parent)
chain: AUAAAAGCGCCAGAACUACAGAAAUGUAGUUGACGAGGAGGAGGUUUAUCGAAUUUUCGGCGGAUGCCUCCAAA

Assays:
Conditions in all cases: with glucosamine-6-phosphate
glucosamine-6-phosphate [1] = variants of: B1; assay: self-cleavage kobs at 40 uM GlcN6P; higher = faster cleavage; RNA array
Method in brief: (§1)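 Tracking of barcoded ribozyme variants used a hybridised Cy3 probe at 37 °C, after in situ transcription by E. coli RNA polymerase on sequenced MiSeq chips. The flowed solution held 40 μM to 10 mM glucosamine-6-phosphate in HEPES/KCl/Mg(OAc)2 buffer, and imaging ran over ~14 h. kobs was taken from exponential decay fits of normalised per-tile medians, and kcat and KM from weighted Michaelis–Menten fits.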

glucosamine-6-phosphate [2] = variants of: B1; assay: self-cleavage kobs at 160 uM GlcN6P; higher = faster cleavage; RNA array
Method in brief: as §1

glucosamine-6-phosphate [3] = variants of: B1; assay: self-cleavage kobs at 640 uM GlcN6P; higher = faster cleavage; RNA array
Method in brief: as §1

glucosamine-6-phosphate [4] = variants of: B1; assay: self-cleavage kobs at 2500 uM GlcN6P; higher = faster cleavage; RNA array
Method in brief: as §1

glucosamine-6-phosphate [5] = variants of: B1; assay: self-cleavage kobs at 10000 uM GlcN6P; higher = faster cleavage; RNA array
Method in brief: as §1

Variant | self-cleavage kobs at 40 uM GlcN6P (glucosamine-6-phosphate [1]) [s⁻¹] | self-cleavage kobs at 160 uM GlcN6P (glucosamine-6-phosphate [2]) [s⁻¹] | self-cleavage kobs at 640 uM GlcN6P (glucosamine-6-phosphate [3]) [s⁻¹] | self-cleavage kobs at 2500 uM GlcN6P (glucosamine-6-phosphate [4]) [s⁻¹] | self-cleavage kobs at 10000 uM GlcN6P (glucosamine-6-phosphate [5]) [s⁻¹]
A36C C70A | 3.5e-05 ± 1.7e-05 | 0.000113 ± 3.7e-05 | 6.93e-05 ± 3e-05 | – | –
G35U G60C | < 1e-05 | < 1e-05 | < 1e-05 | < 1e-05 | < 1e-05
G35U G60U | < 1e-05 | < 1e-05 | < 1e-05 | < 1e-05 | < 1e-05
G35A U69A | < 1e-05 | < 1e-05 | < 1e-05 | < 1e-05 | –
G35C U49A | < 1e-05 | – | < 1e-05 | < 1e-05 | –
G35C G44A | < 1e-05 | – | – | – | < 1e-05
G35C G63A | < 1e-05 | < 1e-05 | < 1e-05 | – | < 1e-05
G35C C71U | < 1e-05 | – | < 1e-05 | < 1e-05 | < 1e-05
G35C A39G U49G C50U | < 1e-05 | – | < 1e-05 | < 1e-05 | < 1e-05
G35U C58U | < 1e-05 | < 1e-05 | – | < 1e-05 | < 1e-05
G35A G43U | < 1e-05 | < 1e-05 | < 1e-05 | < 1e-05 | < 1e-05
A36G G51U | < 1e-05 | – | < 1e-05 | – | < 1e-05
G35U A39G | < 1e-05 | < 1e-05 | < 1e-05 | < 1e-05 | < 1e-05
A36C A39G G66A | < 1e-05 | – | – | – | < 1e-05
G35C C61G | < 1e-05 | < 1e-05 | < 1e-05 | – | –
G35U U65G | < 1e-05 | < 1e-05 | < 1e-05 | < 1e-05 | < 1e-05
G35A C68A | < 1e-05 | < 1e-05 | < 1e-05 | < 1e-05 | –
A36G G44U U45C G51A G63C U69G C70G | < 1e-05 | – | – | – | < 1e-05
G35U G37C G40U U56A U65A | < 1e-05 | – | – | – | –
